Broadly, the Kd is the free concentration of one partner at which half of the binding sites on the other are occupied at equilibrium, for simple one-to-one binding. In general, koff refers to a measure of how fast the partners let go of each other. Usually kon stands for a measure of how fast the partners come together.

Assay [1] has as its target recombinant cynomolgus monkey CD3ε/δ heterodimer (cynomolgus monkey) (UniProt Q95LI5). The experiment in a line: ELISA, coated CD3ε/δ.
Assay [2] deals with recombinant human CD3ε/δ heterodimer (human) (UniProt P07766). The experiment in a line: ELISA, coated CD3ε/δ. For orientation: ELISA stands for enzyme-linked immunosorbent assay.
Chain of recombinant human CD3ε/δ heterodimer (human) (P07766 23-126, stated change not applied, chain 1 of 2): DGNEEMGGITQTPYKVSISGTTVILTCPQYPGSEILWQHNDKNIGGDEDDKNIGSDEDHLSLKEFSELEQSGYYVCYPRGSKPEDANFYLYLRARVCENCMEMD
Chain of recombinant human CD3ε/δ heterodimer (human) (P04234 22-105, stated change not applied, chain 2 of 2, further chain): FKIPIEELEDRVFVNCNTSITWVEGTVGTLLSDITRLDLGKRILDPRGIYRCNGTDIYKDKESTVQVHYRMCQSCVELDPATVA
Assay [3] deals with recombinant cynomolgus monkey CD3ε/δ heterodimer (cynomolgus monkey) (UniProt Q95LI5). The experiment in a line: BLI (Octet), antigen on anti-Penta His sensor, antibody 50 nM. A general note: In BLI a coated tip is dipped into the sample, and binding shifts an interference pattern.
Chain of recombinant cynomolgus monkey CD3ε/δ heterodimer (cynomolgus monkey) (Q95LI5 22-117, stated change not applied, chain 1 of 2): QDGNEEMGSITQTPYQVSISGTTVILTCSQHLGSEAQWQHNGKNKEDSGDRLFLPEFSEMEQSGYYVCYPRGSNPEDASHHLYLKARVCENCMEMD
Chain of recombinant cynomolgus monkey CD3ε/δ heterodimer (cynomolgus monkey) (Q95LI8 22-105, stated change not applied, chain 2 of 2, further chain): as the sequence (P04234 22-105, stated change not applied, chain 2 of 2, further chain) above, with I5V, N15K, I20V, S32T, D33N, I34N, T64A, S74N, V83L counted along it
In assay [4] the target is recombinant human CD3ε/δ heterodimer (human) (UniProt P07766). The description is as above.

B1: C07 (antibody, human IgG1, lambda, L234A L235A, V domains shown)
VH: EVQLVESGGGLVQPGGSLKLSCAASGFTFNTYAMNWVRQASGKGLEWVGRIRSKYNNYATYYADSVKDRFTISRDDSQSTAYLQMNSLKTEDTAVYYCVRHGNFGNSYVSWFAYWGQGTLVTVSS
VL: QAVVTQEPSLTVSPGGTVTLTCRSSTGAVTTSNYANWFQQKPGQAPRGLIGGTNKRAPWTPARFSGSLLGGKAALTLSGAQPEDEAEYYCALWYSNLWVFGGGTKLTVLG
Regarding B1, the Absorbance (450 nm) in assay [1] stood at 2.6. Further, the Absorbance (450 nm) in assay [2] came to 0.96. Further, in assay [3], the Kd turned out to be 27.5 nM, the dissociation rate constant (koff) amounted to 0.00535 s⁻¹ and the kon worked out at 194000 M⁻¹ s⁻¹. Also, in assay [4], the Kd was found to be 23 nM, the koff was 0.00349 s⁻¹ and the association rate constant (kon) is 152000 M⁻¹ s⁻¹.

B2: B12 (antibody, human IgG1, lambda, L234A L235A, V domains shown)
VH: EVQLVESGGGLVQPGGSLKLSCAASGFTFNTYAMNWVRQASGKGLEWVGRIRSKYNNYATYYADSVKDRFTISRDDSKNTLYLQMNSLKTEDTAVYYCVRHGNFGNSYVSWFAYWGQGTLVTVSS
VL: QAVVTQEPSLTVSPGGTVTLTCRSSTGAVTTSNYANWVQQKPGQAPRTLIGGTNKRAPWTPARFSGSLLGDKAALTLSGAQPEDEAEYYCALWYSNLWVFGGGTKLTVLG
For the molecule B2, the Absorbance (450 nm) in assay [1] came out at 0.072; in assay [2] it was 0.098.

B3: B13 (antibody, human IgG1, lambda, L234A L235A, V domains shown)
VH: EVQLVESGGGLVQPGGSLKLSCAASGFTFNTYAMNWVRQASGKGLEWVGRIRSKYNNYATYYADSVKDRFTISRDDSKNTLYLQMNSLKTEDTAVYYCVRHGNFGNSYVSWFAYWGQGTLVTVSS
VL: QAVVTQEPSLTVSPGGTVTLTCRSSTGAVTTSNYANWVQQKPGQAPRGLIYGTNKRAPWTPARFSGSLLGGKAALTLSGAQPEDEAEYYCALWYSNLWVFGGGTKLTVLG
For the molecule B3, the Absorbance (450 nm) was determined as 0.156 in assay [1] and 0.169 in assay [2].

B4: C08 (antibody, human IgG1, lambda, L234A L235A, V domains shown)
VH: EVQLVESGGGLVQPGGSLKLSCAASGFTFNTYAMNWVRQASGKGLEWVGRIRSKYNNYATYYADSVKDRFTISRDDSQSTAYLQMNSLKTEDTAVYYCVRHGNFGNSYVSWFAYWGQGTLVTVSS
VL: QAVVTQEPSLTVSPGGTVTLTCRSSTGAVTTSNYANWFQQKPGQAPRGLIGGTNKRAPWTPARFSGSLLGDKAALTLSGAQPEDEAEYYCALWYSNLWVFGGGTKLTVLG
Consider B4, for which the Absorbance (450 nm) in assay [1] stood at 2.18. In assay [2], the Absorbance (450 nm) turned out to be 0.446. Moreover, in assay [3], the Kd was determined as 35.6 nM, the koff amounted to 0.00589 s⁻¹ and the association rate constant (kon) was 166000 M⁻¹ s⁻¹. Also, in assay [4], the Kd is 29.4 nM, the koff turned out to be 0.00317 s⁻¹ and the on-rate (kon) was found to be 108000 M⁻¹ s⁻¹.

B5: B11 (antibody, human IgG1, lambda, L234A L235A, V domains shown)
VH: EVQLVESGGGLVQPGGSLKLSCAASGFTFNTYAMNWVRQASGKGLEWVGRIRSKYNNYATYYADSVKDRFTISRDDSKNTLYLQMNSLKTEDTAVYYCVRHGNFGNSYVSWFAYWGQGTLVTVSS
VL: QAVVTQEPSLTVSPGGTVTLTCRSSTGAVTTSNYANWVQQKPGQAPRTLIGGTNKRAPWTPARFSGSLLGGKAALTLSGAQPEDEAEYYCALWYSNLWVFGGGTKLTVLG
With B5, the figures for the Absorbance (450 nm) in assay [1] and in assay [2] were 0.107 and 0.132, respectively.

B6: C01 (antibody, human IgG1, lambda, L234A L235A, V domains shown)
VH: EVQLVESGGGLVQPGGSLKLSCAASGFTFNTYAMNWVRQASGKGLEWVGRIRSKYNNYATYYADSVKDRFTISRDDSQSTAYLQMNSLKTEDTAVYYCVRHGNFGNSYVSWFAYWGQGTLVTVSS
VL: QAVVTQEPSLTVSPGGTVTLTCRSSTGAVTTSNYANWFQQKPGQAPRTLIYGTNKRAPWTPARFSGSLLGGKAALTLSGAQPEDEAEYYCALWYSNLWVFGGGTKLTVLG
In the case of B6, the Absorbance (450 nm) is 0.075 in assay [1] and 0.131 in assay [2].

B7: A03 (antibody, human IgG1, lambda, L234A L235A, V domains shown)
VH: EVQLVESGGGLVQPGGSLKLSCAASGFTFNTYAMNWVRQASGKGLEWVGRIRSKYNNYATYYADSVKDRFTISRDDSKNTAYLQMNSLKTEDTAVYYCVRHGNFGNSYVSWFAYWGQGTLVTVSS
VL: QAVVTQEPSLTVSPGGTVTLTCRSSTGAVTTSNYANWFQQKPGQAPRTLIGGTNKRAPWTPARFSGSLLGGKAALTLSGAQPEDEAEYYCALWYSNLWVFGGGTKLTVLG
On to B7, for which the results for the Absorbance (450 nm) in assay [1] and in assay [2] were 0.094 and 0.132, respectively.

B8: B10 (antibody, human IgG1, lambda, L234A L235A, V domains shown)
VH: EVQLVESGGGLVQPGGSLKLSCAASGFTFNTYAMNWVRQASGKGLEWVGRIRSKYNNYATYYADSVKDRFTISRDDSKNTLYLQMNSLKTEDTAVYYCVRHGNFGNSYVSWFAYWGQGTLVTVSS
VL: QAVVTQEPSLTVSPGGTVTLTCRSSTGAVTTSNYANWVQQKPGQAPRTLIYGTNKRAPWTPARFSGSLLGDKAALTLSGAQPEDEAEYYCALWYSNLWVFGGGTKLTVLG
On to B8, for which the Absorbance (450 nm) in assay [1] came to 0.076; in assay [2], 0.098.

B9: B14 (antibody, human IgG1, lambda, L234A L235A, V domains shown)
VH: EVQLVESGGGLVQPGGSLKLSCAASGFTFNTYAMNWVRQASGKGLEWVGRIRSKYNNYATYYADSVKDRFTISRDDSKNTLYLQMNSLKTEDTAVYYCVRHGNFGNSYVSWFAYWGQGTLVTVSS
VL: QAVVTQEPSLTVSPGGTVTLTCRSSTGAVTTSNYANWVQQKPGQAPRGLIYGTNKRAPWTPARFSGSLLGDKAALTLSGAQPEDEAEYYCALWYSNLWVFGGGTKLTVLG
For B9, the Absorbance (450 nm) in assay [1] is 0.102; in assay [2], 0.127.

B10: C16 (antibody, human IgG1, lambda, L234A L235A, V domains shown)
VH: EVQLVESGGGLVQPGGSLKLSCAASGFTFNTYAMNWVRQASGKGLEWVGRIRSKYNNYATYYADSVKDRFTISRDDSQSTAYLQMNSLKTEDTAVYYCVRHGNFGNSYVSWFAYWGQGTLVTVSS
VL: QAVVTQEPSLTVSPGGTVTLTCRSSTGAVTTSNYANWVQQKPGQAPRGLIGGTNKRAPWTPARFSGSLLGDKAALTLSGAQPEDEAEYYCALWYSNLWVFGGGTKLTVLG
Consider B10, for which the Absorbance (450 nm) in assay [1] came to 2.8. In assay [2], the Absorbance (450 nm) was 2.37. In addition, in assay [3], the Kd is 0.888 nM, the off-rate constant (koff) is 0.000341 s⁻¹ and the on-rate (kon) was 384000 M⁻¹ s⁻¹. For the same molecule, in assay [4], the dissociation constant Kd is 0.419 nM, the koff came to 0.000112 s⁻¹ and the kon turned out to be 268000 M⁻¹ s⁻¹.

B11: C15 (antibody, human IgG1, lambda, L234A L235A, V domains shown)
VH: EVQLVESGGGLVQPGGSLKLSCAASGFTFNTYAMNWVRQASGKGLEWVGRIRSKYNNYATYYADSVKDRFTISRDDSQSTAYLQMNSLKTEDTAVYYCVRHGNFGNSYVSWFAYWGQGTLVTVSS
VL: QAVVTQEPSLTVSPGGTVTLTCRSSTGAVTTSNYANWVQQKPGQAPRGLIGGTNKRAPWTPARFSGSLLGGKAALTLSGAQPEDEAEYYCALWYSNLWVFGGGTKLTVLG
Turning to B11, in assay [1], the Absorbance (450 nm) stood at 2.81. The Absorbance (450 nm) in assay [2] was determined as 2.45. For the same molecule, in assay [3], the dissociation constant (Kd) stood at 0.653 nM, the koff turned out to be 0.000343 s⁻¹ and the on-rate constant (kon) is 525000 M⁻¹ s⁻¹. For the same molecule, in assay [4], the Kd is 0.43 nM, the koff turned out to be 0.000162 s⁻¹ and the kon is 376000 M⁻¹ s⁻¹.

B12: Mouse human chimeric SP34 IgG1 antibody (antibody, V domains shown)
VH: EVQLVESGGGLVQPKGSLKLSCAASGFTFNTYAMNWVRQAPGKGLEWVARIRSKYNNYATYYADSVKDRFTISRDDSQSILYLQMNNLKTEDTAMYYCVRHGNFGNSYVSWFAYWGQGTLVTVSS
VL: QAVVTQESALTTSPGETVTLTCRSSTGAVTTSNYANWVQEKPDHLFTGLIGGTNKRAPGVPARFSGSLIGDKAALTITGAQTEDEAIYFCALWYSNLWVFGGGTKLTVLG
Take B12: in assay [3], the Kd turned out to be 0.14 nM, the koff was 5.3e-05 s⁻¹ and the on-rate constant (kon) amounted to 378000 M⁻¹ s⁻¹. Besides, in assay [4], the Kd was 0.229 nM, the koff was 6.01e-05 s⁻¹ and the kon was 262000 M⁻¹ s⁻¹.

Values taken from patent publication US20200317779A1.
